Measured values published in article PMC3057995, “Potent Anti-Tumor Effect Generated by a Novel Human Papillomavirus (HPV) Antagonist Peptide Reactivating the pRb/E2F Pathway” (PLoS ONE, 2011).
Bridge positions count the residues as written; N and C are the ends. Ends that are not written are not given here.

Columns and labels:
[1] = system: SiHa cells
Experimental: The 5-FAM labeled peptides were used to monitor the cell uptake and intracellular location of the peptide. SiHa cells were seeded on the coverslips in 12-well plates (1×10^5/well) and cultured overnight. The DMEM was replaced with a fresh medium, supplemented with 80 µM 5-FAM labeled peptide. Cells were washed three times with a PBS buffer after 8 h and 24 h of incubation, respectively, and then observed under a fluorescence microscope Leica DMI 6000B. Images were captured with Leica AF6500 software (Leica Mikrosysteme Vertrieb GmbH, Wetzlar, Germany).

[2] = target: T1, His-HPV16E7 fusion protein (human papillomavirus type 16, UniProt P03129 1-98); test: ELISA
T1 construct: source: E. coli BL21, extracted in denaturing conditions, purified (Ni-NTA agarose)
T1 sequence (looked up): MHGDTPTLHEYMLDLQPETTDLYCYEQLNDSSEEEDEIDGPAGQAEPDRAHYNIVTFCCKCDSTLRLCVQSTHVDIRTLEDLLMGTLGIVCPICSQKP

Q: For `O=C(O)c1ccc2c(c1)C(=O)OC21c2ccc(O)cc2Oc2cc(O)ccc21` [5-Fam], which “cell fluorescence (uptake control)” value [1] is on record?
A: did not show fluorescence

Q: “positive phage clones displaying the peptide PKGLDWC” was tested. Which inhibitory ratio of HPV16E7 mAb binding at 10^13 CFU/ml [2] did it give?
A: > 50%

B1: Pep-7 (peptide)
peptide: SACPKGLDWCGG
modifications: disulfide 3-10 (inferred)
notes: also called selected peptide; antagonist peptide; source: synthetic peptide (Chinese Peptide Company), HPLC purified
Q: Does B1 bind ([2]; both partners purified)?
A: binds
